Residue numbers refer to the chain shown, from its start. Blank lines part the entries; values can stand above or below the binder they belong to.
Assays:
[1] = molecular target: T1, human plasma-derived FIXa (Haematologic Technologies Inc) (human, UniProt P00740 47-191; P00740 227-461); experiment: cell-based or functional assay
[2] = molecular target: T1, human plasma-derived FIXa (Haematologic …); experiment: cell-based or functional assay; remark: listed apart in the source

T1 sequence (P00740 47-191, chain 1 of 2): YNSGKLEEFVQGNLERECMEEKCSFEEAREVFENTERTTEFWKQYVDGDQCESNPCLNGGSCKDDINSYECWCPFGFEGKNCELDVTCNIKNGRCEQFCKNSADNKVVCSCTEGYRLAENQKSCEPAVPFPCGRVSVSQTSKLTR
T1 sequence (P00740 227-461, chain 2 of 2): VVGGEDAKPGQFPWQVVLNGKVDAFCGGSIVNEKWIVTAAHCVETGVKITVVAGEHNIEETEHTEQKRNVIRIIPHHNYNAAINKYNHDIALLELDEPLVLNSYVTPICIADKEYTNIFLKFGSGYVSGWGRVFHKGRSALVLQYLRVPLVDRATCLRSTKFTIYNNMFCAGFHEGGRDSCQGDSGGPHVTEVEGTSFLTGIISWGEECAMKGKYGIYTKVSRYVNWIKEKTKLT

Stimulation index at 800 nM OA antibody [1]: 850 fold
B1: mAb4-9578 (monovalent one-armed version of mAb1-7977) (antibody, V domains shown)
VH: EVQLVESGGGLVQPGRSLKLSCAASGFRFDDYAMHWVRQAPGKGLEWVSGISWRGAQIGYADSVKGRFTISRDNAKNSLYLQLNSLRAEDTALYYCAKSYGSGSFYNAFDSWGQGTLVTVSS
VL: DIQMTQSPSTLSASVGDRVTITCRASQKISSWLAWYQQKPGKAPKFLIYKASRLDRGVPSRFSGSGSGTEFSLTISSLQPDDFATYYCLEYRSYIRTFGQGTKVEIK

Stimulation index at 1600 nM OA antibody [1]: 531 fold
B2: mAb5-1528 (monovalent one-armed version of mAb1-9058) (antibody, V domains shown)
VH: B1 VH with R28T, D30H, A40V, A56D, Q57I, A61V, A97V
VL: B1 VL with V15A, T22S, K28S, S72T, R92N

Stimulation index at 1600 nM OA antibody [1]: 417 fold
B3: mAb5-0152 (monovalent one-armed version of mAb1-8782) (antibody, V domains shown)
VH: B1 VH with R28T, D30H, A40V, A56D, Q57I, I58T, A61V, A97V
VL: B1 VL with V15A, K28S, R92S

Stimulation index at 800 nM OA antibody [1]: 567 fold
B4: mAb5-1257 (monovalent one-armed version of mAb1-9002) (antibody, V domains shown)
VH: B1 VH with G26K, R28T, A40V, A56D, Q57I, A61V, A97V
VL: B1 VL with V15A, K28S, D55E, R92S

Maximum stimulation (fold), at 1115 nM BiAb [2]: 11000 fold
B5: mAb5-1409 (bispecific, mAb1-8768/mAb1-7503) (bispecific antibody, V domains shown)
VH 1: B1 VH with R28T, D30H, A40V, A56D, Q57I, A61V, A97V
VL 1: B1 VL with V15A, K28S, V58T, R92S
VH 2: EVQLVQSGAEVKKPGESLRISCKGSGYSFTTSWIVWVRQMPGKGLEWMGMIDPSDSFTSYSPSFQGHVTISADKSISTAYLQWSSLKASDTAMYYCARLHYYHSEEFDVWGQGTLVTVSS
VL 2: EIVLTQSPGTLSLSPGERATLSCRASQSVSSSYLAWYQQKPGQAPRLLIYGASSRTRGIPDRFSGSGSGTDFTLTISRLEPEDFAVYYCQQFGSSRLFTFGEGTKLEIK

Stimulation index at 1600 nM OA antibody [1]: 799 fold
B6: mAb5-0900 (monovalent one-armed version of mAb1-8459) (antibody, V domains shown)
VH: B1 VH with R28T, A40V, A56D, Q57I, A61V, D62K, A88I, A97V
VL: B1 VL with V15A, Q27K, K28S, S52E, D55E, R92S

Maximum stimulation (fold), at 1650 nM BiAb [2]: 2490 fold
B7: mAb4-7687 (bispecific, mAb1-6037/mAb1-6723) (bispecific antibody, V domains shown)
VH 1: B1 VH with R28T, A40V, A56D, Q57I, A61V, A97V
VL 1: B1 VL with V15A, K28S, S31E, R92S
VH 2: B5 VH 2
VL 2: B5 VL 2 with T56A, E102Q

Maximum stimulation (fold), at 4060 nM BiAb [2]: 1270 fold
B8: mAb4-7786 (bispecific, mAb1-6081/mAb1-6463) (bispecific antibody, V domains shown)
VH 1: B1 VH with R28T, D30H, A40V, A56D, Q57I, A61V, A97V
VL 1: B1 VL with V15A, K28S, R92S
VH 2: not shown
VL 2: not shown

Stimulation index at 1600 nM OA antibody [1]: 320 fold
B9: mAb5-1695 (monovalent one-armed version of mAb1-9134) (antibody, V domains shown)
VH: B1 VH with R28T, A40V, R54K, A56D, Q57I, A61V, A97V
VL: B1 VL with V15A, K28S, S31E, R92S

Stimulation index at 800 nM OA antibody [1]: 621 fold
B10: mAb5-0161 (monovalent one-armed version of mAb1-8785) (antibody, V domains shown)
VH: B1 VH with R28T, D30H, A40V, A56D, Q57I, A61V, A75K, A97V
VL: B1 VL with V15A, K28S, R92S

Stimulation index at 1600 nM OA antibody [1]: 4320 fold
B11: mAb5-1270 (monovalent one-armed version of mAb1-9016) (antibody, V domains shown)
VH: B1 VH with R28T, A40V, A56D, Q57I, I58G, A61V, A97V
VL: B1 VL with V15A, K28S, D55E, R92S

Stimulation index at 1600 nM OA antibody [1]: 918 fold
B12: mAb5-0658 (monovalent one-armed version of mAb1-8679) (antibody, V domains shown)
VH: B1 VH with R28T, A40V, A56D, Q57I, A61V, D62K, A97V
VL: B1 VL with Q27K, K28S, S30K, D55E, R92S

Maximum stimulation (fold), at 1218 nM BiAb [2]: 10800 fold
B13: mAb5-0057 (bispecific, mAb1-8768/mAb1-6723) (bispecific antibody, V domains shown)
VH 1: B1 VH with R28T, D30H, A40V, A56D, Q57I, A61V, A97V
VL 1: B1 VL with V15A, K28S, V58T, R92S
VH 2: B5 VH 2
VL 2: B5 VL 2 with T56A, E102Q

Stimulation index at 1600 nM OA antibody [1]: 1020 fold
B14: mAb5-0908 (monovalent one-armed version of mAb1-8467) (antibody, V domains shown)
VH: B1 VH with G26K, A40V, A56D, Q57I, A61V, A75E, A97V
VL: B1 VL with V15A, Q27K, K28S, D55E, R92S

Stimulation index at 1600 nM OA antibody [1]: 1330 fold
B15: mAb5-1263 (monovalent one-armed version of mAb1-9015) (antibody, V domains shown)
VH: B1 VH with R28T, A40V, A56D, Q57I, I58K, A61V, A97V
VL: B1 VL with V15A, K28S, D55E, R92S

Stimulation index at 800 nM OA antibody [1]: 732 fold
B16: mAb5-2035 (monovalent one-armed version of mAb1-9285) (antibody, V domains shown)
VH: B1 VH with R28T, A40V, A56D, Q57I, A61V, D62K, A88I, A97V
VL: B1 VL with V15A, Q27K, K28S, D55E, R92S

Stimulation index at 1600 nM OA antibody [1]: 283 fold
B17: mAb5-0514 (monovalent one-armed version of mAb1-8543) (antibody, V domains shown)
VH: B1 VH with G26K, A40V, A56D, Q57I, A61V, A75E, A97V
VL: B1 VL with V15A, K28S, D55E, G57D

Stimulation index at 1600 nM OA antibody [1]: 1650 fold
B18: mAb5-0144 (monovalent one-armed version of mAb1-8780) (antibody, V domains shown)
VH: B1 VH with R28T, D30H, A40V, A56D, Q57I, I58K, A61V, A97V
VL: B1 VL with V15A, K28S, R92S

Stimulation index at 474 nM OA antibody [1]: 382 fold
B19: mAb4-3505 (monovalent one-armed version of mAb1-5797) (antibody, V domains shown)
VH: EVQLVQSGAEVKKPGESLRISCKGSGYRFTSYWIGWVRQMPGKGLEWMGMIDPTDSYTDYGPSFHGHVTISADKSISTAYLQWSSLKASDTAMYYCARMRIMSGAFDIWGQGTMVTVSS
VL: DIVMTQSPLSLPVTPGEPASISCRSSQSLLHSTWYNYLNWYLQKPGQSPQLLIYLGSRRASGVPDRFSGSGSGTDFTLKISRVEAEDVGVYYCMQVLHIPYTFGQGTKLEIK

Stimulation index at 800 nM OA antibody [1]: 133 fold
B20: mAb4-5368 (monovalent one-armed version of mAb1-6606) (antibody, V domains shown)
VH: B19 VH with R28S, T30R, S31P, T54S, H65E, M99V, M102R, S103A
VL: B19 VL with R58N, V96A

Stimulation index at 1478 nM OA antibody [1]: 615 fold
B21: mAb4-3461 (monovalent one-armed version of mAb1-5754) (antibody, V domains shown)
VH: B19 VH with R28S, T30R, S31P, T54S, H65E, M99V, M102R, S103A
VL: B19 VL with S28R, W34G, S57K, R58N

Maximum stimulation (fold), at 1520 nM BiAb [2]: 2600 fold
B22: mAb4-7756 (bispecific, mAb1-6584/mAb1-6723) (bispecific antibody, V domains shown)
VH 1: B19 VH with R28S, T30R, S31P, T54S, H65R, M99V, M102R, S103A
VL 1: B19 VL with S57K, R58N
VH 2: B5 VH 2
VL 2: B5 VL 2 with T56A, E102Q

Maximum stimulation (fold), at 253 nM BiAb [2]: 3530 fold
B23: mAb4-7789 (bispecific, mAb1-6584/mAb1-6463) (bispecific antibody, V domains shown)
VH 1: B19 VH with R28S, T30R, S31P, T54S, H65R, M99V, M102R, S103A
VL 1: B19 VL with S57K, R58N
VH 2: not shown
VL 2: not shown

Maximum stimulation (fold), at 109 nM BiAb [2]: 3190 fold
B24: mAb4-7762 (bispecific, mAb1-6584/mAb1-6738) (bispecific antibody, V domains shown)
VH 1: B19 VH with R28S, T30R, S31P, T54S, H65R, M99V, M102R, S103A
VL 1: B19 VL with S57K, R58N
VH 2: EVQLVESGGGLVKPGGSLRLSCAASGFTFSDAWMNWVRQAPGKGLEWVGRIKRKTDGGTTDYAAPVKGRFTISRDDSKNTLYLQMDSLKTEDTAVYYCTTDGIAVAGPLRVYWGQGTLVTVSS
VL 2: not shown

Stimulation index at 800 nM OA antibody [1]: 692 fold
B25: mAb4-5347 (monovalent one-armed version of mAb1-6582) (antibody, V domains shown)
VH: B19 VH with R28S, T30R, S31P, T54S, H65E, M99V, M102R, S103A
VL: B19 VL with S57K, R58N

Stimulation index at 564 nM OA antibody [1]: 1220 fold
B26: mAb4-3486 (monovalent one-armed version of mAb1-5781) (antibody, V domains shown)
VH: B19 VH with R28S, T30K, S31P, T54S, H65R, M99V, M102R, S103A
VL: B19 VL with S32R, S57R, R58N

Stimulation index at 800 nM OA antibody [1]: 916 fold
B27: mAb4-5344 (monovalent one-armed version of mAb1-6592) (antibody, V domains shown)
VH: B19 VH with R28S, T30R, S31P, T54S, H65R, M99V, M102R, S103A
VL: B19 VL

Stimulation index at 800 nM OA antibody [1]: 1290 fold
B28: mAb4-5357 (monovalent one-armed version of mAb1-6590) (antibody, V domains shown)
VH: B19 VH with R28S, T30R, S31P, T54S, H65E, M99V, M102R, S103A
VL: B19 VL

Stimulation index at 204 nM OA antibody [1]: 690 fold
B29: mAb4-5337 (monovalent one-armed version of mAb1-6566) (antibody, V domains shown)
VH: B19 VH with R28S, T30R, S31P, T54S, H65E, M99V, M102R, S103A
VL: B19 VL with S32R, S57R, R58N

Stimulation index at 264 nM OA antibody [1]: 1040 fold
B30: mAb4-3490 (monovalent one-armed version of mAb1-5783) (antibody, V domains shown)
VH: B19 VH with R28S, T30R, S31P, T54S, H65R, M99V, M102R, S103A
VL: B19 VL with S32R, S57R, R58N

Stimulation index at 800 nM OA antibody [1]: 94 fold
B31: mAb4-5375 (monovalent one-armed version of mAb1-6609) (antibody, V domains shown)
VH: B19 VH with S31P, H65R, M99V, M102R
VL: B19 VL with R58N, V96A

Stimulation index at 800 nM OA antibody [1]: 580 fold
B32: mAb4-5355 (monovalent one-armed version of mAb1-6584) (antibody, V domains shown)
VH: B19 VH with R28S, T30R, S31P, T54S, H65R, M99V, M102R, S103A
VL: B19 VL with S57K, R58N

Stimulation index at 900 nM OA antibody [1]: 239 fold
B33: mAb4-3503 (monovalent one-armed version of mAb1-5796) (antibody, V domains shown)
VH: B19 VH with R28S, T30R, S31P, T54S, M99V
VL: B19 VL with S57K, R58N

Stimulation index at 800 nM OA antibody [1]: 94 fold
B34: mAb4-5342 (monovalent one-armed version of mAb1-6586) (antibody, V domains shown)
VH: B19 VH
VL: B19 VL with S57K, R58N

Maximum stimulation (fold), at 633 nM BiAb [2]: 2810 fold
B35: mAb4-7758 (bispecific, mAb1-6584/mAb1-6097) (bispecific antibody, V domains shown)
VH 1: B19 VH with R28S, T30R, S31P, T54S, H65R, M99V, M102R, S103A
VL 1: B19 VL with S57K, R58N
VH 2: B24 VH 2 with D31N, W33H, D86N
VL 2: not shown
